Measured values as given in the nanobody polyreactivity screen of Harvey et al. (2022).

Assay: yeast display, Sf9 membrane polyspecificity reagent, FACS + sequencing; frameworks hold sequencing errors
Method in brief: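 Polyreactivity labels are assigned by the sorting gate from which each nanobody was recovered. The gates were low and high (top ~1%), set on anti-HA fluorescence for expression and streptavidin fluorescence for reagent binding. Before sorting, galactose-induced (36–48 hours) yeast display cells were stained for 1 hour at 4 °C with 10% biotinylated, detergent-solubilized Sf9 membrane reagent.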

Row | Sequence | polyreactivity (PSR sort gate)
1 | QVQLVESGGGLVQAGGSLRLSCAASGRTFNGYALGSSRQAPGKERELVAAISGRGRSTRYADSVKGRFTISRDNAKNTVYLQMNSLNPEDTAVYYCNARGYSETQREYDSWGQGTQVTVSS | high polyreactivity
2 | QVQLVESGGGLVQAGGSLRLSCAASGRTFIFYAMGWYRQAPGKERELVAAITYSGTSTYYADSVKGRFTISRDNAKNTVYLQMNSLKPEDTAVYYCASRPTPYRDDADEYWGQGTQVTVSS | low polyreactivity
3 | QVQLVESGGGLVQAGGSLRLSCAASGITFYRYTMGWYRQAPGKERELVAAITWSGGSTYYADSVKGRFTISRDNAKNTVYLQMNSLKPEDTAVYYCAVYLPYSQRYVHYYYWGQGTQVTVSS | high polyreactivity
4 | QVQLVESGGGVVQAGGSLRISCAASGRTFGVYAMGWYREAPGKERELVAAINRSGTRTYYADSVKGRFSISRDNPKNTVYLPMNSLKPEDTAVYYCAASWYPGSRNYDYWGQGTQVSVSS | high polyreactivity
5 | QVQLVESGGGLVQAGGSLRLTCAASGRIFPYMGWYRQAPGKERELVAAISSRGGNTYYADSVKGRFTISRDNAKNTVYLQMNSLKPEDTAVYYCNKVKYTWYDWGQGTQVTVSS | high polyreactivity
6 | QVQLVESGGGLVQAGRSLRLICAASGSTFKRYAMGWYRQAPGKERELVAAITWTGGRTYYADSVKGRFTISRDNANYTVYLQMNSLKPEDTAVYYCAADDPHTAYGYWGQGTQVTVSS | high polyreactivity
7 | QVQLVESGGGLVQAGGSLRLSCAASGSIFDDYAMGWYRQAPGKERELVAAISWSGGSTYYADSVKGRFTISRDNAKNTVYLQINSLKPEDTAVYYCAKESGWVGAIHYDYWGQGTQVTVSS | low polyreactivity
8 | QVQLVESGGGLVQAGGSLRLSCAASGYTFRYYVMGWYIQAPGQERELVATISRGGRTNYADSVKGRFTISRDNAKNTVYLQMNSLKPEDTAVYYCNARTLYAYITRDYWGQGTQVTVSS | high polyreactivity
9 | QVQLQESGGGLVQAGGSLRLSCAASGSILFSTLMGWSRQAPGKERELVATITTGTFTNYAGSVKGRFTISRDNAENTVYLQMNSLRPEDTAVYYSADYANHKAGFYYWGQGTQVTVSS | high polyreactivity
10 | QVQLVESGGGLVQAGGSLRLSCAASGIIFRAYAMGWYRQAPGKERELVAAITSRGGSTYYADSVKGRFTISRDNAKNTVYLQMNSLKPEDTAVYYCAADFTIPYWDAKFDYWGQGTQVTVSS | low polyreactivity
11 | QVQLVESGGGLDQAGGSLRLSCAASGFIFYRYVMGWYRQAPGKERELVATISSGGSTNYADSVKGRFTISRDNAKNTVYLQMNSLKPEDTAVYYCAKRRYFYNYYEYDYWGQGTQVTVSS | high polyreactivity
12 | QVQLVESGGGLVQAGGSLRLSCAASGRIFSYYAMGWYRQAPGKERELVASISRSGGSTYYADSVKGRFTISRDNAKNTVYLQMNSLKPEDTAVYYCAAYKYVRSYPYDYWGQGTQVTVSS | low polyreactivity
13 | QVQLVESGGGLVQAGGSLRLSCAASGRTFVFNAMGWYRQAPGKERELVAAISRSGGSTYYADSVKGRFTISRDNAKNTVYLQMNSLKTEDTAVYYCAADTPYLRRRLGMDYWGQGTQVTVSS | high polyreactivity
14 | QVQLVESGGGLVQAGGSLRLSCAASGSIFFYYAMGWYRQAPGKERELVATITSGGSTSYADSVKGRFTISRDNAKNTVYLQMNSLKPEDTAVYYCAARKVTKSTYNYWGQGTQVTVSS | low polyreactivity
15 | QVQLVESGGGLVQAGGSLRLSCAASGLTFRSYTMGWYRQAPGTERELVAAISSGGSTYYADSVKGRFTISRDNAKNTVYLQMNSLKPEDTAVYYCAAPRGHGKYYSWGQGTQVTVSS | high polyreactivity
16 | QVQLVESGGGLVQAGGSLRLSCAASGSTFYLYAMGWYRQAPGKERELVAAISWSGGDTYYADSVKGRFTISRDNANNTVYLQMTSLKPEDSAVYYCAAEITYSYPGSPRRRDYWGQGTQVTVSS | low polyreactivity
17 | QVQLVESGGGLVQAGGSLRLSCAASGSIFTHNAMGWYRQAPGKERELVATISYGGGRTYYADSVKGRFTISRDNAKNTVYLQMNSLKPEDTAVYYCAADVYWYAYVWRKYGYWGQGTQVTVSS | low polyreactivity
18 | QVQLVESGGGLVQAGGSLRLSCAASGSIFKYYTRGWYRQAPGKERELVAAISGSGGTTYYADSVKGRFTISRDNAKNTVYLQMNSLKPEDTAVYYCATAYYRAFRGDYWGQGTQVTVSS | high polyreactivity
19 | QVQLVESGGGLVQAGGSLRLSCAASGRIFYSYAMGWYRQAPGKERELVAAISWSGGRTYYADSVKGRFTISRDNAKNNVYLQMNSLKPEDTAVYYCARRGYYYDYWGQGTQVTVSS | high polyreactivity
20 | QVQLVESGGGLVQAGGSLRLSCAASGSTFFPNGMGWYRQARGKEWELVAAITQDGGSTYYADSVKGRFTISRDNAKNTVYLQMNSLNPEDTAVYYCAASAGPYYEYGYWGQGTQVTVSS | low polyreactivity
21 | QVQLVESGGGLVQAGGSLLLTCAASGIIFVIYAMGWYRQAPGKERELVAAITSDGSTSYADSVKGRFTISRDNAKNTVYLQMNSLKPEDTAVYYCAKDFFEHSPVSHTYSSSKYDYWGQGTQVTVSS | low polyreactivity
22 | QVQLVESGGGLVQAGGRLRLSCAASGYIFDDKAMGWYRQAPGKERELVATNYADSVKGRFTISRDNAKNTVYLQMNSLKPEATAVYYCAAEAFYPWTSSRYIAYYYWGQGTQVTVSS | low polyreactivity

Row | Sequence | polyreactivity (PSR sort gate)
23 | QVQLVESGGGLVQAGGSLRLSCAASGIIFKVNAMGWYRQAPGKERELVAAISRRGGITYYADSVKGRFTISRDNAKNTVYLQMNSLKPEDSAVYYCAAAYSDYRFSTRYPYNYWGQGTQVTVSS | high polyreactivity
24 | QDQLVESGGGLVQAGGNLRLSCAASGSIFSDYTIGWYRQAPGKERELVADITLSSGSTYYADSVKGRFTISRDNAKNTVYLQMNSLKPEDTAVYYCAADGWYYFRSGDFEYDYWGHGTQVTVSS | low polyreactivity
25 | QVQLVESGGGLVQAGGSLRLSCAASGSTFYPYAMGWYRQAPGKERELVAAIRFSGASTYYADSVKGRFTISRDNAKNTVYLQMNSLKPEDTAVYYCAARYVYSWPYRYGYWGQGTQVTVSS | low polyreactivity
26 | QVQLVESGGGLVQAGGSLSLSCAASGSIFDVNAMGWYRQAPGKERELVAAISDSGGSTYYADSVKGRFTISRDNAKNTVHLQMNSLKAEDTAVYYCNADWSWYNYYDFDYWGQGTQVTVSS | low polyreactivity
27 | QVQLVESGGGLVQAGGSLRLSCAASGRIFAFNAMGWYRQAPGKERELVAAITGRGGRTYYADSVKGRFTISRDNAKNTVYLQMNSLKPEDTAVYYCAAQRYINYDYWGQGTQVTVSS | high polyreactivity
28 | QVQLVESGGGLDQAGGSLRLSCAASGSIFPDYAMGWYIPAPGKERELVAAITWSGGNTYYADSVKGRFTISRDNAKNTVYLQMNSLKPEDTAVYYCAADISLHWYYYRRYNYWGQGTQVTVSS | low polyreactivity
29 | QVQLVESGGGLVQAGGSLRLSCAASGRIFARYAMGWYRQAPGKERELVAAISFRGGSTYYADSVKGRFTISRDNAQNTVYLPMNSLKPEDTAVYYCNARYGRGGYDYWGQGTQVSVSS | high polyreactivity
30 | QVQLVESGGGLVQAGGSLRLSCAASGITFEDYAMGWYRQAPGKERELVAAITSNGGSTYYADSVKGRFTISRDNAKNTVYLQMNSLKPEDTAVYYCAATKYFSYYGRVSWADGGYWGQGTQVTVSS | low polyreactivity
31 | QVQLVESGGGLVQAGGSLRLSCAASGSTFFYYAMGWSRQEPGKERELVASISSRGGSTYYADSVKGRFTISRDNAKNTVYLQMYSLKPEDTAVYYCAADLWAYGPLWRWSRADYDYWGQGTQVTVSS | low polyreactivity
32 | QVQLVESGGRLVQAGGILRLSCAASGIIFKDYAMGWYRQATGKERELVAAISWSGSSTYYADSVKGRFTISRDNAKNTVYLQMNSLKPEDTAVYYCNAFPGDYRYDYWGQGTQVTVSS | high polyreactivity
33 | QVQLVESGGGLVQAGGSLRLSCAASGRIFYKYAMGWYRQAPGKERELVAGITRSGANTYYADSVKGRFTISRDNAKNTVYLQMNSLKPEDTAVYYCAVYIPRGGRSGYWGQGTQVTVSS | high polyreactivity
34 | QVQLVESGGSLVQAGGSLRLSCAASGFIFIRYAMGWYRQAPGKERELVAAITTSTGRTYYADSVKGRFTISRDNAKNTVYLQMNSLKPEDTAVYYCAAVPWKRYDYYTPFARGYWGQGTQVTVSS | low polyreactivity
35 | QVQLVESGGGLVQAGGSLRLSCAASGNILGTYAMGWYRQAPGKERELVAAISSSVGSTYYADSVKGRFSISRDNAKKTVYLQMNSLKPEDTAVYYCAARNYQFYEKWGYLYDYWGQGTQVTVSS | low polyreactivity
36 | QFQLVESVGGLVQAGGSLRLSCAASGFIFGGYAMGWYIKAPGKERELVAAISSSGGSTYYADSVKGRFTISRDNAKNTVYLQMNSLKPEDTAVYYCAKVGWSRRYYYWGQGTQVTVSS | high polyreactivity
37 | QVQLVESGGGLVQAGGSLRLSCAASGSIFVYNAMGWYRQAPGKERELVAAISQRGGSTYYADSVKGRFTISRDNAKNTVYLQMNSLKPEDTAVYYCAAAPGDSGDDYWGQGTQVTVSS | low polyreactivity
38 | QVQLVESGGGLVQAGGSLRLSCAASGFTFYKNTMGWYRPEPGKERELVAAISSSGSSTYYADSVKGRFRISRDNAKNTVYLLMNSLKPEDTAVYYCAAGRFAYHDDYWGQGTQVTVSS | high polyreactivity
39 | QVQLQESGGGLVQAGGSLRLSCAASGSISAVGAMGWYRQAPGKEREFAASVNWGTNTNYADSVKGRFTISRDNAKNTLYLQMNSLKPEDTAVYYCAVLPDWETRHEYWGHGTQVTVSS | low polyreactivity
40 | QVQLVESGGGLVHAGGSLRLSCAASGGIFSWNTMGWYRQAPGKERELVAAINWSSGRTYYADSVKGRFTISRDNAKYTVYLQMNSLKPEDTAVYYCAAKYYGSRKYDYWGQGTQVTVSS | high polyreactivity
41 | QVQLVESGGGLVQAGGSLRLSCAASGFIFPDNAMGWYRQAPGKERELVATITSGGNTYYADSVKGRFTISRDNAKNTVYIQMNSLKPEDTAVYYSAAEWDYYDYDWYIAWTIDYWGQGTQVTVSS | low polyreactivity
42 | QVQLVESGGGLVQAGGSLRLSCAASGSIFPTNAMGWYRQAPGKERELVAAITSTAGSTYYADSVKGRFTISRDNAKNSVYLQMNSLKPEDTAVYYCAATYKVGVKSWYDYWGQGTQVTVSS | high polyreactivity
43 | QVQLVDSGGGLVQAGGRLRLSRAASGSIFRRYPMGWYRQAPGKERELVAAISRNSGRTYYADSVKGRFTISRDNAKITDYLQMNSLKPEDTAVYYCNADTSLAANGKFDYWGQGTQGTVSS | high polyreactivity
